Results from the supplement of paper PMC9170038.

Tested on: MS2 coat protein
Assay: apparent KD of MS2 coat protein; designed switch direction (-1 OFF switch, 1 ON switch): 1; higher = weaker reporter binding
Outline: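 Apparent KD, taken as the median over clusters for each design, was obtained by curve-fitting normalised cluster fluorescence. Designed RNA switches had been transcribed on Illumina chips by stalled E. coli RNA polymerase and titrated with SNAP-549-labelled MS2 coat protein, doubling from 0.7 or 1.5 nM to 3 µM.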

[1] = input ligand: microRNA oligo, concentration not stated
[2] = Eterna round: R95, input ligand: FMN 200 uM
[3] = Eterna round: R95, input ligand: microRNA oligo, concentration not stated
[4] = Eterna round: R95, input ligand: none

Sequence | apparent KD of MS2 coat protein (input ligand: FMN 200 uM) [µM] | apparent KD of MS2 coat protein [1] [µM] | apparent KD of MS2 coat protein (input ligand: none) [µM] | apparent KD of MS2 coat protein [2] [µM] | apparent KD of MS2 coat protein [3] [µM] | apparent KD of MS2 coat protein [4] [µM]
AUUAUUAAUGCAGGAUAUGAUUAACAUGAGGAUCACCCAUGUGGUGUUGUGAGUAAGGAGAGUGAUCAGAAGGGCAAUUUUUUU [JMF's solution 7] (Eterna round: R96, puzzle: Same State NG 2) | 0.382 | 0.633 | 0.34 | – | – | –
AUUAUUUAUGCAGGAUAUGAUUAACAUGAGGAUCACCCAUGUGGUGUUGUGAGUAAGGAGAGUGAUCAGAAGGGCAAUUUUUUU [JMF's solution 42] (Eterna round: R96, puzzle: Same State NG 2) | 0.709 | 0.387 | 0.375 | – | – | –
AUUAUUUAUGCAGGAUAUGAUUAACAUGAGGAUCACCCAUGUGGUGUUGUGAGUAAGGAGAGUGAUCAGAAGGGCAUUUAUUUU [JMF's solution 47] (Eterna round: R96, puzzle: Same State NG 2) | 0.926 | 0.559 | 0.669 | – | – | –
AUUGCUAGCACAGGAUAUCAUGCGAAAAUUGCGUGAGAAGGGUGGACGCUGUCAUUCACGGAAGACAUGAGGAUCACCCAUGUC [SameState NG1 #77] (Eterna round: R96, puzzle: Same State NG 1) | 0.0446 | 0.0562 | 0.0881 | – | – | –
AUUGCUAUCACAGGAUAUCAUGCGAAAAUUGCGUGAGAAGGGUGGACUCUGUCAUUGCCGGAGGACAUGAGGAUCACCCAUGUC [SameState NG1 #100] (Eterna round: R96, puzzle: Same State NG 1) | 0.0962 | 0.027 | 0.0609 | – | – | –
AUUGCUUACGCAGGAUAUGAUGCGAAAAUUGCGUCAGAAGGGUGAAAAGAAUCGUUGCAAGAAGACAUGAGGAUCACCCAUGUC [SameState NG1 #94] (Eterna round: R96, puzzle: Same State NG 1) | 0.0299 | 0.0282 | 0.0598 | – | – | –
AUUGCUUACGCAGGAUAUGAUGCGGAAACUGCGUCAGAAGGGUGAAAAGAAUCGUUGCAAGAAGACAUGAGGAUCACCCAUGUC [SameState NG1 #95] (Eterna round: R96, puzzle: Same State NG 1) | 0.02 | 0.023 | 0.0305 | – | – | –
AUUUAACAAGCUUUUUGCUCGUCUUAUAAACAUGAGGAUCACCCAUGUAAUAGCGUGAGAGUAAAUAAAUAAAUAAU [JMF 82] (puzzle: Sensor for hsa-mir-208a) | – | – | – | 0.0171 | 0.0427 | 0.0142
AUUUAACAAGCUUUUUGCUCGUCUUAUAAACAUGAGGAUCACCCAUGUAAUAGCGUGAGAGUAAAUAAAUUAAUAAU [JMF 97] (puzzle: Sensor for hsa-mir-208a) | – | – | – | 0.0144 | 0.0461 | 0.0122
AUUUAACAAGCUUUUUGCUCGUCUUAUAAACAUGAGGAUCACCCAUGUAAUAGCGUGAGAGUAAAUAAUUAAAUAAU [JMF 89] (puzzle: Sensor for hsa-mir-208a) | – | – | – | 0.0133 | 0.0507 | 0.00991
AUUUAACAAGCUUUUUGCUCGUCUUAUAAACAUGAGGAUCACCCAUGUAAUAGCGUGAGAGUAAAUAUAUAAAUAAU [JMF 85] (puzzle: Sensor for hsa-mir-208a) | – | – | – | 0.0138 | 0.0422 | 0.0119
AUUUAACAAGCUUUUUGCUCGUCUUAUAAACAUGAGGAUCACCCAUGUAAUAGCGUGAGAGUAAAUUUUUAAAUAAU [JMF 95] (puzzle: Sensor for hsa-mir-208a) | – | – | – | 0.0145 | 0.0389 | 0.0148
AUUUAACAAGCUUUUUGCUCGUCUUAUAAACAUGAGGAUCACCCAUGUAAUAGCGUGAGAGUAAUUAAUUUAAUUAU [JMF 100] (puzzle: Sensor for hsa-mir-208a) | – | – | – | 0.0155 | 0.0327 | 0.0141
AUUUAAUUUACUCAGGAUAUGCAUAGAUAAACAUGAGGAUCACCCAUGUAAUUAUUUUUUAAUAAGUAGAAGGGAGAUUUUUAUU [splinter_arm[switch]] (puzzle: Same State 2) | – | – | – | 0.0549 | 0.0654 | 0.147
AUUUUUAAUGCAGGAUAUGAUCAACAUGAGGAUCACCCAUGUGGUGUUGUGAGUAAGGAGAGUGAUCAGAAGGGCAUCUUUUCA [SS-NG2-LRO03] (Eterna round: R96, puzzle: Same State NG 2) | 1.31 | 0.372 | 0.758 | – | – | –
